The nanobody polyreactivity screen of Harvey et al. (2022)

Experiment: yeast display, Sf9 membrane polyspecificity reagent, FACS + sequencing; frameworks hold sequencing errors
Method in brief: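 Genes from sorted yeast were amplified by colony PCR, read by MiSeq 2 × 250 sequencing and filtered on CDR length. These cells carried a synthetic nanobody library in Saccharomyces cerevisiae BJ5465 and were sorted by FACS into low and high (top ~1%) gates on anti-HA and streptavidin fluorescence. Polyreactivity is labelled according to the gate of origin.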

QVQLVESGGGLVQAGGSLRLSCAASGSTGFYGMGWYRQAPGKERELVAAITFRSGSTYYADSVKGRFTISRDNAKNTVYLQMNSLKPEDTAVYYCAAYSFNNGHRYDYWGQGTQVTVSS
polyreactivity (PSR sort gate): high polyreactivity

QVQLVESGGGLVQAGGSLRLSCAASGRIFHYNAMGWYRQAPGKERELVAAISTGGSTNYADSVKGRFTISRDNAKNTVYLQMNSLKPEDTAVYYCNADLYVDPWTYFGYDYWGQGTQVTVSS
polyreactivity (PSR sort gate): low polyreactivity

QVQLVESGGGLVQAGGSLRLSCAASGRTFTQYAMRWYRQAPGKERELVAAISWRGGSTYYADSVKGRFTISRDNAKNTVYLQMNSLKPEDTAVYYCAKRYFRGYPLYDYWGQGTQVTVSS
polyreactivity (PSR sort gate): high polyreactivity

QVQLVESGGGLVQAGGSLRLSCAASGRTLYYYTMGWYRQAPGKERELVAAIRWSTGSTYYADSVKGRFTISRDNAKNTVYLQMNSLKPEDTAVYYCNAVVARLIFWQFDYWGQGTQVTVSS
polyreactivity (PSR sort gate): high polyreactivity

QVQLVESGGGLVQAGGSLRLSCAASGFTFTRYAMGWSRQAPGKERELVAAMSRGGTTYADSVKGRFTISRDNAKNTVYLQMNSLKPDDTAVYYCNRLRYCYPQEFGYWGLGTQVTVSS
polyreactivity (PSR sort gate): high polyreactivity

QVQLVESGGGLVQAGGSLRLSCAASGRTIGGYAMGWYRQAPGKERELVATITRGGRTYYADSVKGRFTISRDNAKNTVYLQMNSLKPEDTAVYYCAARYGQSRSVYNLYRFDYWGQGTQVTVSS
polyreactivity (PSR sort gate): high polyreactivity

QVQLVESGGRLVQAGGSLRLSCDPSGRTFWYYAMGWYRQAPGKERELVASISLSGSRTNYADSVKGRFTISRDNAKNTVYLQMNSLKPEDTAVYYCAADNFRQFGEYDYWGQGTQVTLSS
polyreactivity (PSR sort gate): low polyreactivity

QVHLVDSGGGLVQAGGSLRLSCAAYGSTFHPYAMGWYRQAPGKERELVADITSSGSTHYADSVKGRFTISRDNAKNTVYLQMNSLKPEDTAVYYCAAGIPWASDSGDPSFEYWGQGTEVTVSS
polyreactivity (PSR sort gate): low polyreactivity

QVQLVESGGGLVQAGGSLRLSCAASGRTFEQYAMGWYRQAPGKERELVAAISGSGGSTFYADSVKGRFTISRDNAKNTVYLQMNSLKPEDTAVYYCAVDAYPPFFYFTSVWFSYDYWGQGTQVTVSS
polyreactivity (PSR sort gate): low polyreactivity

QVHLVESGGGLVQAGGSLRLSCAASGNTFYAYARGWYRQAPGKERELVAAIARAGNTYYADSVKGRFTISRDNAKNTVYLQMNSLKPEDTAVYYCNADDWWYGDNYWGQGTEVTVSS
polyreactivity (PSR sort gate): high polyreactivity

QVQLVESGGGLVQAGGSLRLSCAASGITFSYNAMGWYRQAPGKERELVAAITWSGDSTYYADSVKGRFTISRDNAKNTVYLQMNSLKPEDTAVYYCNARYLRLRYPYTDEYNYWGQGTQVTVSS
polyreactivity (PSR sort gate): low polyreactivity

QVQLVESGGGLVQAGGSLRLSCAASGFTFSKYDMGWYRQATGKERELVAAISRSAGSTYYADSVKGRFTISRDHAKNTVYLQMNSLKPEDTAVYYCARDNPRSPSGYNYWGQGTQVTVSS
polyreactivity (PSR sort gate): high polyreactivity

QVQLLESGGGLVQAGGSLRLSCAASGFTLTRNAMGWYRQAPGKEREFVAAISWSGGSTYADSVKGRFTISRDNAKNTVFLQMNSLKPEDTAVYYCAADRYNGRYGYWGQGTQVTVSS
polyreactivity (PSR sort gate): high polyreactivity

QVQLVESGGGLVQAGGSLRLSCAASGITFSFYAMGWYRQAPGKERELVATIDSGGSTNYADSVKGRFTISRDNAKNTVYLQMNSLKPEDTAVYYCAADGVWYYYDMDYWGQGTQVTVSS
polyreactivity (PSR sort gate): low polyreactivity

QVQLLQTGGGLVQAGGSLRLSCAASGSNFVIYAMGWYIQAPWNERELVATISGGGRTNYADSLKGRFTISRDNAKNTVYLQMNSLKPEDTAVYYCNGDQYGSYLGVGFDYWGQGTQVTVSS
polyreactivity (PSR sort gate): high polyreactivity

QVQLVESGGGLVQAGGSLRLSCAASGRTFDPYAMGWYRQAPGKERELVAAITSGDDTYYADSVKGRFTISRDTAKNTVYLQMNSLKPEETAVYFCAAASFTPDYYSHDYWGQGTQVTVSS
polyreactivity (PSR sort gate): low polyreactivity

QVQLVESGGGLVQAGGSLRLSCAASGSTFWSNAMGWYRHAPGKERELVAVISRRCVRKYYADSVKGRFTISRDNAKNNVYLQMNSLKPEDTAVFYCNAEVYGELDYWGQGTQVNVSS
polyreactivity (PSR sort gate): low polyreactivity

QVQLVESGGGLVQAGGSLRLSCASSGRTFVFYAMGWYRHAPGKERELVAAITSGTSTNYADSVKGRFTISRDNAKNTVYLQMISLKPEDTAVYYCAAYWTDVTYSIGFGYWGQGTQVTVSS
polyreactivity (PSR sort gate): low polyreactivity

QVQLVESGGGLVQAGGSLRLSCAASGRTFRYHAMGWYRQAPGKERELVAGISWSGTSTYYADSVKGRFTISRDNAKNTVYLQMNSLKPEDTAVYYCNAVFRYRYDYWGQGTQVTVSS
polyreactivity (PSR sort gate): high polyreactivity

QVQLVESGGGLVQAGGSLRLSCAASGRIFQTYAMGWYRQAPGNERELVARIRLSGGSTYYADSVKGRFTISRDNAKNTVYLQMNRLKPEATAVYYCAALYSRARFTDPYYYWGQGTQVTVSS
polyreactivity (PSR sort gate): high polyreactivity

QVQLVESGGGLVQAGGSLRLSCAASGFIFYYYAMGWYRQAPGKERELVAAISWSGGITYYADSVKGRFTISRDNAKNTVYLQMNSLKPEDTAVYYCNAVSSGDMDYWGQGTQVTVSS
polyreactivity (PSR sort gate): high polyreactivity

QVQLEESGGGLVQAGGSLRLSCAASGFTFYSYAKGCSRQAPGKERELVAAISWSGSRTYYADSVKGRFTISRDNAKNTVYLQMNSLKPEDTAVYVCNKYLPRHRYDFDYWGQGTQVTVSS
polyreactivity (PSR sort gate): high polyreactivity

QVQLVESGGGLVQAGGSLRLSCAASGFTFYENAMGWYRQAPGKERELVATISYSGGTTYYADSVKGRFTISRDNAKNTVYLQMNSLKPEDTAVYYCNADYFYYGFPDDYWGQGTQVTVSS
polyreactivity (PSR sort gate): low polyreactivity

QVQLVESGGGLVQAGGSLRLSCAASGITFGSYAMGWYRHAPGKERELVAAIRWRGGNTYYADSVKGRFTISRDNAKNTVYLQMNSLKPEDTAVYSCAARRYGYRYDQPYYNDYWGQGTQVTVSS
polyreactivity (PSR sort gate): low polyreactivity

QVQLVESGGGLVQAGGSLRLSCAASGLIFAKYAMGGYRQAPGKERELVAAISYSGGSTFYADSVKGRFTISRDNAKNTVYLQMNSLKPEDTAVYYCAARDSRVGYYWFVRKEYYYWGQGTQVTVSS
polyreactivity (PSR sort gate): high polyreactivity

QVQLVESGGGKVQAGGSLRLSCAASGLTFSRYAMGWYRQAPGKERELVAAISGRGASTSYADSVKGRFTISRDNAKNTVYLQMNSLKPEDTAVYYCAAQKYYHSYLNRHYYWGQGTQVTVSS
polyreactivity (PSR sort gate): high polyreactivity

QVQLVESGGGLVQAGGSLRLSCAASGYIFDIYAMGWYRQAPGKERELVAVITRSGGGTYYADSVKGRFTISRDNAKNTVYFQMNSLKPEDTAVYYCAAESYVYGGSDYVYWGQGTEVTVSS
polyreactivity (PSR sort gate): low polyreactivity

QVQLVESGGGLVQAGGSLRLSCAASGYTDYAMGWYRQAPGKERELVATITSGDNTNYADSVKGRFTISRDNAKNTVDLQMNSLKPEDTAVYYCAAEYGMHYGIDYWGQGTQVTVSS
polyreactivity (PSR sort gate): low polyreactivity

QVQLVESGGGLVQAGGSLRLSCAASGGILSYNTMGWYRQAPGKERELVAAITSSGGRTYYADSVKGRFTISRDNAKNTVYLQMNSLKPEDTAVYYCNTVYYFTYYYWGQGTQVTVSS
polyreactivity (PSR sort gate): high polyreactivity

QVQLQESGGGLVQAGGSLRLSSAASGTISVHATMGWYRQAPGKERELVAGITDGANTYYADSVKGRFTISRDNSKNTEYLQMNSLKPEDTAVYYCAAYYGTVVHFTYWGQGTQVTVSS
polyreactivity (PSR sort gate): low polyreactivity

QVQLVESGGGLVQAGGSLRLSCAASGFIFQGYVMGRYRQAPGKVREFVAAISRSGGTTFYADSVKGRFTISRDNAKNPVYLQMNSLKPEDTAVYYCNRAPLGRPGYDYWGPGTQVTVSS
polyreactivity (PSR sort gate): high polyreactivity

QVQLVESGGGLVQAGGSLRLSCAASGSIFTIYAMGWYRQAPGKERELVATITGIADSTYYADSVKGRFTISRDNAKNTVYLQMNSLKPEDTAVYYCAADKYVAEYDYWGQGTQVTVSS
polyreactivity (PSR sort gate): low polyreactivity

QLQLVESGGGLVQAGGSLRLSCAPSGYTFYLYAMGWYRQAPGKARELDAAISNRGGSTYYADSVKGRFTISRDNAKNTVYLQMKSLKPEDTAFYYCAATVGKAGGRYYDRRYYWGQGTQVTVSS
polyreactivity (PSR sort gate): high polyreactivity

QVQLVESGGGFVQAGGSLRLSCAASGSTFSPNGMGWYRPAPGKERELVAAISSSTGSTNYADSVKGRFTISRDNAKNTVYLQMNSLKPEDTAVYYCAVDPYVHWTTKLYDYWGQGSQVTVSS
polyreactivity (PSR sort gate): low polyreactivity

PVQLVESGGGLVQAGGSLRLSCAASGSTIPSYAMGWYRQAPGKERELVASITYSDGTTRYADSVKGRFTISRDNAKNTVYLQMNSLKPEDTAVYYCNAVYYREGMDYWGQGTQVTVSS
polyreactivity (PSR sort gate): low polyreactivity

QVQLVESGGGLVQAGGSLRLSCAASGFTFSYYVMGWYRQAAGKERELVAAINRGGSTNYADSVKRRFTISRDNAKNTVYLQMNSLKPEDTAVYYCAARFPGYGYWGQGTEVTVSS
polyreactivity (PSR sort gate): high polyreactivity

QVQLLESGGGLVQAGGSLRLSCAPSGSTFGYYAMGWYRPAPGKERELVAAITSGGRTYYADSVKGRFTISRDNAKNTVYLQMISLKPEETAVYYFAAIYRTYNKFDYWGQGTQVTVSS
polyreactivity (PSR sort gate): high polyreactivity

QVQLVESGGCLVQAGGSLRLTCAASGFIFYRYAMGWYRHAPGKESELVAAISKSGSSTYYADSVKGRFTISRDNAKNTVYLQMNSLKPEDTAVYYCARDRQSRSLLEDDYWGQGTQVTVSS
polyreactivity (PSR sort gate): high polyreactivity

QVQLVESGGGLVQAGGSLRLSCAASGRIFYYNTMGWYRQAPGKEREFVAAITGSGGITYYADSVKGRFTISRDNAKNTVYLQMNSLKPEDTAVYYCAARTRYSIYRYYYWGQGTQVTVSS
polyreactivity (PSR sort gate): high polyreactivity

QVQLVESGGGLVQAGGSLRLSCAASGSIFDSNAMGWYRQAPGKERELVAAIDDSGATTYYADSVKGRFTISPDNAKNTVYLQLNSLKPEDTAVYYCAAETYTGSLAYYREYYYWGQGTQVTVSS
polyreactivity (PSR sort gate): low polyreactivity

QVHLVESGGGLVQAGGSLRLSCAASGRIFSVYAMGWYRQAPGKERELVAVITTSGGSTYYADSVKGRFTISRGNAKNTVYLQMNSLKPEDTAVYYCNAEPWSYAIGSYEYWGQGTQVTVSS
polyreactivity (PSR sort gate): high polyreactivity

QVQHVESGGGLVQAGGSLRLSCAASGRIFWYYAMGWYRQAPGKERELVAASTRGGITTYADSVKGRYTISRDNAKNTVYLQMNSLKPEDTAVYYCNAVRWYGRMDYWGQGTQVTVSS
polyreactivity (PSR sort gate): low polyreactivity

QVQLVESGGGLVQEGGSLRLSCAASGSILGRYAMGWYRQAPGKERELVAAITSSGGRTYYADSVKGRFTISRDNAKNTVYLQMNSLKREDTAVYYCNAVSWWYGYDYWGQGTQVSVSS
polyreactivity (PSR sort gate): high polyreactivity
